What is called Km is the substrate concentration at which the rate is half of its maximum. As usually defined, the kcat is the maximal rate divided by the concentration of active sites. The term kcat/Km denotes the second-order rate constant that governs catalysis at low substrate concentration.

Common to all, as to assay: purified protein
What all share (details): optimal conditions (optimum pH 8.0, 30 °C), substrate range stated 0.2–2.4 mM

Data set [1] has as its system CCOC(=O)[C@@H](C)Oc1ccc(Oc2nc3ccc(Cl)cc3o2)cc1.
The test system of data set [2] is COC(=O)[C@@H](C)Oc1ccc(Oc2ncc(C(F)(F)F)cc2Cl)cc1.
The subject of data set [3] is C[C@@H](Oc1ccc(Oc2cnc3cc(Cl)ccc3n2)cc1)C(=O)OCC1CCCO1.
In data set [4] the test system is C#CCOC(=O)[C@@H](C)Oc1ccc(Oc2ncc(Cl)cc2F)cc1.
In data set [5] the test system is CCCCOC(=O)[C@@H](C)Oc1ccc(Oc2ccc(C#N)cc2F)cc1.

In the case of QpeH (Pseudomonas sp.), the Km in data set [1] is 26.9 ± 4.3 µM; in data set [2], 113.9 ± 3.8 µM; in data set [3] it was 29.5 ± 2.7 µM; in data set [4], 174.0 ± 4.2 µM; in data set [5] it was 158.2 ± 3.5 µM. The turnover number (kcat) in data set [1] is 162 ± 3.4 s⁻¹; in data set [2], 67.4 ± 2.6 s⁻¹; in data set [3], 146 ± 3.3 s⁻¹; in data set [4] it was 37.1 ± 2.9 s⁻¹; in data set [5], 41.1 ± 4.1 s⁻¹. Moreover, the kcat/Km in data set [1] was 6.01e+06 ± 50000 M⁻¹ s⁻¹; in data set [2], 590000 ± 40000 M⁻¹ s⁻¹; in data set [3], 4.96e+06 ± 90000 M⁻¹ s⁻¹; in data set [4], 210000 ± 20000 M⁻¹ s⁻¹; in data set [5], 260000 ± 30000 M⁻¹ s⁻¹.

(Values after PMC5424357.)
